Experimental data published in US20210070882A1.

Target: human CD19 (human) (UniProt P15391)
Test: cell-based or functional assay

Chain of human CD19 (human) (P15391 20-556): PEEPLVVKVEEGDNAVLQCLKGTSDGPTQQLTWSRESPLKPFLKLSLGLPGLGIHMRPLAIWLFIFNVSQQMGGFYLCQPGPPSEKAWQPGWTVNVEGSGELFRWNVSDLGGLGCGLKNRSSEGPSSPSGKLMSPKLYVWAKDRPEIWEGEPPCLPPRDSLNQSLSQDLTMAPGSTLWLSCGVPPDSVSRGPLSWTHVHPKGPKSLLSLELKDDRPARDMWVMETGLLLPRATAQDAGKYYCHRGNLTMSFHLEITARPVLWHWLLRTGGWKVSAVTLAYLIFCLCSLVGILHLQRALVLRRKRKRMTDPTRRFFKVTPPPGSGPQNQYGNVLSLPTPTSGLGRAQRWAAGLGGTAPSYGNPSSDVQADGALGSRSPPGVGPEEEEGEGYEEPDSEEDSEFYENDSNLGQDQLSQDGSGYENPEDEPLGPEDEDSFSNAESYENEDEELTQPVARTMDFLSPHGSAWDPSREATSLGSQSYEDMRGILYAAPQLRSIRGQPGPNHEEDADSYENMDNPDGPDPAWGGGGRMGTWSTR

**Q.** For Blinatumomab (bispecific antibody), which T cell activation EC50 upon Z-138 lysis, CD25/CD4 is on record?
**A.** 3.7 pM

**Q.** And the T cell activation EC50 upon Z-138 lysis, CD25/CD8?
**A.** 4.5 pM

**Q.** And the T cell activation EC50 upon Z-138 lysis, CD69/CD4?
**A.** 2.3 pM

**Q.** What about the T cell activation EC50 upon Z-138 lysis, CD69/CD8 of the same substance?
**A.** 2.4 pM

**Q.** And the Tumor cell lysis Z-138 cells (21 h), EC50?
**A.** 0.26 ng/mL

**Q.** What about the Tumor cell lysis Z-138 cells (21 h), EC50 (pM) of the same substance?
**A.** 4.8 pM
